Assay results taken from patent publication US20150080295A1 (ZEALAND PHARMA A S, published 2015).
Numbered stars: 1 amine (or outer) side, 2 acyl side, 3 side chain; on linkers, the order of the positions; unused ones are H or OH. Square brackets hold non-standard residues; d marks the D form. Side chains are listed from the residue outwards. Ends that are not written are not given here. * marks the point of attachment. γGlu = O=C(O)[C@H](CCC(=O)[*:2])N[*:1]; Palmitoyl = CCCCCCCCCCCCCCCC(=O)*; Aib = CC(C)(N)C(=O)O

What was measured:
[1] = biological target: human glucagon-like peptide 1 receptor (human, UniProt P43220 24-463); experiment: cell-based or functional assay
human glucagon-like peptide 1 receptor, sequence (P43220 24-463): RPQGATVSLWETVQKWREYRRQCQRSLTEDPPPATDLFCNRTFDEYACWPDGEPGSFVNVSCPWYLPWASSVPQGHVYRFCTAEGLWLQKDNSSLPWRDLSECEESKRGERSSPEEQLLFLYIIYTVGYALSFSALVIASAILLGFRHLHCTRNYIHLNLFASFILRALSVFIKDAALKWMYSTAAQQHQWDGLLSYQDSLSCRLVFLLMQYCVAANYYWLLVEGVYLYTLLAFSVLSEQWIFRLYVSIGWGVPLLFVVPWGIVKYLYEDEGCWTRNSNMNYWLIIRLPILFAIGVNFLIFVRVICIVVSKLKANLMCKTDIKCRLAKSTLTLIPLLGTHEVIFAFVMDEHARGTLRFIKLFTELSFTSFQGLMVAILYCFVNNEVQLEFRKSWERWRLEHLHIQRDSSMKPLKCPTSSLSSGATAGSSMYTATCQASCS

human glucagon receptor = human glucagon receptor (human, UniProt P47871 26-477); experiment: cell-based or functional assay

GLP-1R EC50 (nM), cAMP formation in HEK293 cells expressing human GLP-1-R [1] [nM]	GLUR EC50 (nM), cAMP formation in HEK293 cells expressing human Glucagon-R (human glucagon receptor) [nM]	Binder
0.5	0.79	H-HSQGTFTSDYSKYLDSKRAHDFVEWLLRA-NH2 [L006-0170]
0.08	0.06	H[Aib]QGTFTSDYSKYLDSKAAHDFVEWLLRA-NH2 [ZP2867]
0.44	0.57	H-HSQGTFTSDYSKYLDSKAAHDFVEWLMNT-NH2 [L006-0176]
0.21	0.37	H-HSQGTFTSDYSKYLDSKAAHDFVQWLLRA-NH2 [L006-0172]
0.08	0.8	H-HSQGTFTSDYSKYLDSKAARDFVRWLKLA-NH2 [ZP2668]
0.37	0.78	H-HSQGTFTSDYSKYLDSKAAQDFVEWLLRA-NH2 [L006-0171]
0.76	1.23	H-HSQGTFTSDYSKYLDSKAAHDFVKWLLRA-NH2 [L006-0212]
0.02	0.07	H-HSQGTFTSDYSKYLDSKAAQDFVQWLMNT-NH2 [ZP2667]
0.98	1.05	H-HSQGTFTSDYSKYLDKKAAHDFVEWLLRA-NH2 [L006-0239]
0.103	0.085	HSQGTFTSDYSKYLDSK([γGlu-Palmitoyl])AAHDFVEWLLRA-NH2 [ZP2872]
0.14	0.12	H-HSQGTFTSDYSKYLDSKAAHDFVEWLLRA-OH [L006-0296]
0.99	152	H-HSQGTFTSDYSKYLDSRAAHDFVEWLLRA-NH2 [L006-0169]
0.04	0.08	H-HSQGTFTSDYSKYLDSLAAQDFVQWLLNT-NH2 [ZP2753]
0.09	0.11	H[dS]QGTFTSDYSKYLDSKAAHDFVEWLLRA-NH2 [ZP2866]
0.57	0.55	H-HSQGTFTSDYSKYLDSKAAKDFVEWLLRA-NH2 [L006-0208]
0.05	0.05	H-HSQGTFTSDYSKYLDSKAAHDFVEWLLRA-NH2 [ZP2669]
